The results in this text go back to the supplement of paper PMC10567573.

The chains are these.
B1: KRT34 (parent)
chain: PTVDLNQVLNETRSQYEALVETNR
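Further: lentivirally expressed fusions sorted by FACS into six bins by GFP to DsRed ratio, PSI derived from sequencing read proportions per bin multiplied by bin number.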

Variants of B1 are the subject of the data set. The data set can be described thus: protein stability index of a GFP-peptide fusion (GPS, HEK-293T) (PSI 1-6); higher = more stable. The note with it: c terminus: a fixed tail appended.
Regarding PTVDLNQVLNETRSQYEALVHTNR [E21H], the protein stability index was found to be 3.76. For PTVDLNQVLNETRSQYEALVATNR [E21A], the protein stability index was 3.84. With PTVDLNQVLNETRSQYEALVCTNR [E21C] the figure was 3.55.

Turning to PTVDLNQVLNETRSQYEALVWTNR [E21W], the protein stability index worked out at 2.62. Regarding PTVDLNQVLNETRSQYEALVQTNR [E21Q], the protein stability index was found to be 4.3. With PTVDLNQVLNETRSQYEALVNTNR [E21N], the protein stability index amounted to 3.83. As to PTVDLNQVLNETRSQYEALVVTNR [E21V], the protein stability index came out at 3.49.

PTVDLNQVLNETRSQYEALVLTNR [E21L]: the protein stability index is 3.56.

PTVDLNQVLNETRSQYEALVSTNR [E21S]: the protein stability index came out at 4.02. In the case of PTVDLNQVLNETRSQYEALVDTNR [E21D], the protein stability index was 3.64.

Regarding PTVDLNQVLNETRSQYEALVITNR [E21I], the protein stability index worked out at 3.23.

With PTVDLNQVLNETRSQYEALVRTNR [E21R], the protein stability index was found to be 3.62.

For PTVDLNQVLNETRSQYEALVGTNR [E21G], the protein stability index is 4.06. In the case of PTVDLNQVLNETRSQYEALVTTNR [E21T], the protein stability index turned out to be 3.74. With PTVDLNQVLNETRSQYEALVFTNR [E21F] the figure was 2.74; with PTVDLNQVLNETRSQYEANVETNR [L19N], 5.01. As for PTVDLNQVLNETRSQYEAHVETNR [L19H], the protein stability index worked out at 4.75.

As for PTVDLNQVLNETRSQYEAKVETNR [L19K], the protein stability index is 5.17. As to PTVDLNQVLNETRSQYEAEVETNR [L19E], the protein stability index worked out at 5.63. With PTVDLNQVLNETRSQYEADVETNR [L19D] the figure was 5.03; with PTVDLNQVLNETRSQYEAFVETNR [L19F], 3.51; with PTVDLNQVLNETRSQYEAWVETNR [L19W], 3.98. With PTVDLNQVLNETRSQYEAMVETNR [L19M] the figure was 3.84. With PTVDLNQVLNETRSQYEAGVETNR [L19G] the figure was 5.03; with PTVDLNQVLNETRSQYEARVETNR [L19R], 4.81; with PTVDLNQVLNETRSQYEAYVETNR [L19Y], 4.39. PTVDLNQVLNETRSQYEASVETNR [L19S]: the protein stability index turned out to be 4.99. Regarding PTVDLNQVLNETRSQYEAQVETNR [L19Q], the protein stability index is 4.63. Take PTVDLNQVLNETRSQYEATVETNR [L19T]: the protein stability index was determined as 4.5. The value for PTVDLNQVLNETRSQYEAAVETNR [L19A] was 4.47; that for PTVDLNQVLNETRSQYEAIVETNR [L19I] was 4.16. The value for PTVDLNQVLNETRSQYEAVVETNR [L19V] was 4.44; that for PTVDLNQVLNETRSQYEAPVETNR [L19P] was 4.7; that for PTVDLNQVLNETRSQYEACVETNR [L19C] was 4.72. The value for PTVDLNQVLNETRSFYEALVETNR [Q15F] was 2.82; that for PTVDLNQVLNETRSPYEALVETNR [Q15P] was 4.34; that for PTVDLNQVLNETRSKYEALVETNR [Q15K] was 3.89. Turning to PTVDLNQVLNETRSVYEALVETNR [Q15V], the protein stability index was 3.19. As for PTVDLNQVLNETRSYYEALVETNR [Q15Y], the protein stability index was 2.91. For the variant PTVDLNQVLNETRSSYEALVETNR [Q15S], the protein stability index is 4.38. The value for PTVDLNQVLNETRSHYEALVETNR [Q15H] was 3.78. The value for PTVDLNQVLNETRSMYEALVETNR [Q15M] was 2.35. With PTVDLNQVLNETRSEYEALVETNR [Q15E] the figure was 4.16; with PTVDLNQVLNETRSDYEALVETNR [Q15D], 5.05.

In the case of PTVDLNQVLNETRSWYEALVETNR [Q15W], the protein stability index was determined as 1.94.

Consider PTVDLNQVLNETRSLYEALVETNR [Q15L], for which the protein stability index turned out to be 2.25. With PTVDLNQVLNETRSCYEALVETNR [Q15C] the figure was 2.94; with PTVDLNQVLNETRSIYEALVETNR [Q15I], 2.96. With PTVDLNQVLNETRSNYEALVETNR [Q15N], the protein stability index was determined as 4.02. With PTVDLNQVLNETRSRYEALVETNR [Q15R] the figure was 4.16; with PTVDLNQVLNETRSAYEALVETNR [Q15A], 4. PTVDLNQVLNETRSGYEALVETNR [Q15G]: the protein stability index was found to be 4.19.

PTVDLNQVLNEPRSQYEALVETNR [T12P]: the protein stability index is 4.12. With PTVDLNQVLNEVRSQYEALVETNR [T12V] the figure was 3.04; with PTVDLNQVLNERRSQYEALVETNR [T12R], 4.28; with PTVDLNQVLNESRSQYEALVETNR [T12S], 3.54. Turning to PTVDLNQVLNEQRSQYEALVETNR [T12Q], the protein stability index was determined as 2.21. The value for PTVDLNQVLNETHSQYEALVETNR [R13H] was 3.46. The value for PTVDLNQVLNETNSQYEALVETNR [R13N] was 5.01. With PTVDLNQVLNETYSQYEALVETNR [R13Y] the figure was 3.64; with PTVDLNQVLNETKSQYEALVETNR [R13K], 3.31. For PTVDLNQVLNETGSQYEALVETNR [R13G], the protein stability index stood at 4.52. As to PTVDLNQVLNETLSQYEALVETNR [R13L], the protein stability index turned out to be 3.34.

In the case of PTVDLNQVLNETISQYEALVETNR [R13I], the protein stability index is 2.83. As to PTVDLNQVLNETTSQYEALVETNR [R13T], the protein stability index worked out at 4.27. On to PTVDLNQVLNETWSQYEALVETNR [R13W], for which the protein stability index was 3.71. Take PTVDLNQVLNETVSQYEALVETNR [R13V]: the protein stability index is 3.42.

As for PTVDLNQVLNETQSQYEALVETNR [R13Q], the protein stability index worked out at 3.97. Consider PTVDLNQVLNETSSQYEALVETNR [R13S], for which the protein stability index was found to be 4.67. The value for PTVDLNQVLNETCSQYEALVETNR [R13C] was 3.57. For the variant PTVDLNQVLNETPSQYEALVETNR [R13P], the protein stability index was found to be 4.79.

On to PTVDLNQVLNETASQYEALVETNR [R13A], for which the protein stability index was 3.85. The value for PTVDLNQVLNETDSQYEALVETNR [R13D] was 5.18; that for PTVDLNQVLNETFSQYEALVETNR [R13F] was 3.07. Take PTVDLNQVLNETESQYEALVETNR [R13E]: the protein stability index was determined as 5.07.

Regarding PTVDLNQVLNETRSQYEILVETNR [A18I], the protein stability index amounted to 3.7. With PTVDLNQVLNETRSQYESLVETNR [A18S] the figure was 3.32; with PTVDLNQVLNETRSQYELLVETNR [A18L], 3.66; with PTVDLNQVLNETRSQYEVLVETNR [A18V], 4.01. As for PTVDLNQVLNETRSQYEQLVETNR [A18Q], the protein stability index is 3.78. In the case of PTVDLNQVLNETRSQYEWLVETNR [A18W], the protein stability index was found to be 3.5. As for PTVDLNQVLNETRSQYEYLVETNR [A18Y], the protein stability index came to 3.6. The value for PTVDLNQVLNETRSQYEFLVETNR [A18F] was 3.59; that for PTVDLNQVLNETRSQYEPLVETNR [A18P] was 4.6; that for PTVDLNQVLNETRSQYEMLVETNR [A18M] was 3.74.

PTVDLNQVLNETRSQYECLVETNR [A18C]: the protein stability index is 4.01.

In the case of PTVDLNQVLNETRSQYETLVETNR [A18T], the protein stability index is 3.81. With PTVDLNQVLNETRSQYEKLVETNR [A18K] the figure was 3.16; with PTVDLNQVLNETRSQYEELVETNR [A18E], 3.69; with PTVDLNQVLNETRSQYEDLVETNR [A18D], 3.92.

On to PTVDLNQVLNETRSQYEGLVETNR [A18G], for which the protein stability index is 4.03.

As to PTVDLNQVLNETRSQYERLVETNR [A18R], the protein stability index worked out at 2.31. With PTVDLNQVLNETRSQYEHLVETNR [A18H] the figure was 4.4; with PTVDLNQVLNETRSQYENLVETNR [A18N], 3.3.
